Consider 109 sequences from the supplement of paper PMC9942255.

This series has as its system Bacillus subtilis DB104 (SP-AmyQ fusion secretion). Nature of the series: AmyQ secretion efficiency, weighted average sort bin (1 = best secretion, 10 = worst) (bin number (weighted average, 1-10)); higher = lower secretion efficiency. The method in brief: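 In this assay, the secretion score is defined as the average bin number weighted by read frequency, normalised to beads per bin, with low-abundance sequences not counted. B. subtilis DB104 cells expressing mature AmyQ behind designed signal peptides (amyE-integrated) were enclosed with fluorescein-starch in ~65 nL alginate beads at about 0.3 cells per bead. Beads grew about 13 h at room temperature, were stained with nile red, and occupied beads went into 10 equally populated green/red fluorescence ratio bins by large-particle flow cytometry, whose amplicons were Illumina-sequenced.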

MKKKLAAGLTASAIVGTTLVVTPAEADDD came in with an AmyQ secretion efficiency of 5.01.

For MPYLKRVLLLLVTGLFMSLFAVTATASAQTK, the AmyQ secretion efficiency is 1.71.

Sequence MGLGKKLSVAVAASFMSLSISLPGVQVAEG yielded an AmyQ secretion efficiency of 3.6.

For MGTTIVAGLAVSAVVGSSMAAAPAEAKTI, the AmyQ secretion efficiency was 6.13.

Sequence MNKLKRLSMLTVMIASVFIFSSHTLAAQY had an AmyQ secretion efficiency of 1.95.

Sequence MKKVLMAFIICLSLILSVLAAPPSGNKAESV gave an AmyQ secretion efficiency of 4.42.

MKVPKTMLLSTAAGLLLSLTATSVSAHRK had an AmyQ secretion efficiency of 4.68.

MKKRLIGFLVLVPALIMSGITLDEANKK displayed an AmyQ secretion efficiency of 4.52.

Take MKKAAAVLLSLGLVFVGFSYGAGHVAEAKTK: the AmyQ secretion efficiency amounted to 1.71.

Regarding MKKFMNFSSVMLATALFLGLTPAGANAADL, the AmyQ secretion efficiency amounted to 4.23.

As for MKWMCSICCAAVLLAGGAAQSEAV, the AmyQ secretion efficiency turned out to be 4.64.

For the sequence MKSKWMSGLLLVAVGFSFRKKKKKVHAGET, the AmyQ secretion efficiency came to 7.2.

In the case of MKKAFLVFLSVVLVTTVFLFVKQQESVAQAKQL, the AmyQ secretion efficiency was found to be 2.31.

In turn, MRFTKFTFIMITVVGFLSVLGLAAVFPLTAQAEKA gave an AmyQ secretion efficiency of 1.81.

The sequence MRKKLKWLSFLLGFIILLFLFKKKFSNNDS displayed an AmyQ secretion efficiency of 7.77.

MFKFKKNFRRRRRRALMSISLFSATASAAST had an AmyQ secretion efficiency of 6.72.

In turn, MKWMCSICCAAVLLAGGAHQAEAV came in with an AmyQ secretion efficiency of 2.89.

In the case of MKQCQKSRKRRRQFLVSLIIGTFVISVPFMANAQSD, the AmyQ secretion efficiency was determined as 1.71.

MKKMLGKSGKQTTTGVFFAVVVKDVFAAGL showed an AmyQ secretion efficiency of 6.37.

MGLGKKLSVAVAASFMSLSISLPGVQGAEG: the AmyQ secretion efficiency was determined as 1.9.

MKKSQYFIVFICFFVLFSVHPIAQAAADS: the AmyQ secretion efficiency amounted to 4.87.

MKRTTNLTMLCLWFTVFSLFLVLLPGKALGAVD gave an AmyQ secretion efficiency of 4.04.

MLFKKWMVGLLAGCLAAGGFSYNAFATEN yielded an AmyQ secretion efficiency of 4.2.

MRPVFPLILSAVLFLSCFFGARQTEVSASKR: the AmyQ secretion efficiency came out at 2.58.

In turn, MKVPKTMLLSTAAGLLLSLTATSWSAHYV registered an AmyQ secretion efficiency of 6.27.

For MLKKIALTLCPAIVGSLLFFTAPASKHVS, the AmyQ secretion efficiency came to 5.12.

MLKRTSFVSSLKKSSAVLLSILLPSGQAHAQSA registered an AmyQ secretion efficiency of 3.11.

Consider MHLIRAAGAVCLAVVLIRFNEDQHQAEGENT, for which the AmyQ secretion efficiency came to 5.07.

MPYLKRVLLLLVTGLFMSLFAVTATKSAQTG came in with an AmyQ secretion efficiency of 4.38.

Sequence MNLRKILLFIALFLMMLTVSAAPVLATSS gave an AmyQ secretion efficiency of 1.67.

MAIIIAIIAAVIVIAALITFNVGTPRNASPG yielded an AmyQ secretion efficiency of 8.5.

For the sequence MKKTIMFVAVAALSTTAFGAHASAKEI, the AmyQ secretion efficiency came out at 3.

With MKKRFSLIMMTGLLFGLTSPDEKAFAAEK, the AmyQ secretion efficiency is 2.56.

MKKTIMSFVAVAALSTTAFGAHASTKEI gave an AmyQ secretion efficiency of 5.13.

Regarding MKWMCSICCAAVLLAGGAGQAEAV, the AmyQ secretion efficiency was found to be 3.36.

Consider MNKPTKLFSTLALAAGMTKDKTTSAGTIHAQQP, for which the AmyQ secretion efficiency was 7.85.

In turn, MRKRQGSGYGGLMMFGTITAASASPD registered an AmyQ secretion efficiency of 7.27.

Sequence MFNRLFRVCFLAALIMAFTLPNSVYAQTP registered an AmyQ secretion efficiency of 2.03.

The sequence MKKRKRRVSALTPSTTLAITAKAKEL displayed an AmyQ secretion efficiency of 6.69.

Turning to MFNRLFRVCFLAALIMAFTLPNSPYAQKP, the AmyQ secretion efficiency amounted to 7.43.

The sequence MRKKLKWLSFKRRRKRLLFLFKYQFSNNDS returned an AmyQ secretion efficiency of 8.72.

MSFVMNIIIALVTILMLSVTSLFALQPSAKAAEH displayed an AmyQ secretion efficiency of 2.71.

MKRIRIPMTYTGTAALTIAPLSFASAEEN registered an AmyQ secretion efficiency of 7.36.

As to MTTKFKKKRRFLLCFMPAAKIEHTQASLL, the AmyQ secretion efficiency worked out at 7.76.

As to MKRLLSTLLIGIMLLITTILVSTLTFAPSAFAKQD, the AmyQ secretion efficiency amounted to 1.3.

In turn, MKQGRTFLTSFMLLAMTGQTALAKDV came in with an AmyQ secretion efficiency of 4.71.

Sequence MKLAKRVSALTPSTTLAITGKAKEL came in with an AmyQ secretion efficiency of 7.09.

Consider MLCVMMLLFSAIASFPVSAQHKDQ, for which the AmyQ secretion efficiency was determined as 5.96.

The sequence MRPLILSAVLFLSCFFGARQTEASASKR registered an AmyQ secretion efficiency of 3.63.

Sequence MKRLLVSLRVWMVFLMNWVTPDRKTAAAAKK gave an AmyQ secretion efficiency of 7.3.

As to MTMLRKIIGWILLLCIIPLFAFTVIESGKEV, the AmyQ secretion efficiency worked out at 6.44.

Sequence MNFKKTVVSALSISALALVSVSGVASAHEI had an AmyQ secretion efficiency of 3.04.

MSTIWIGMLAAAVLLLMVPKVSLADAA showed an AmyQ secretion efficiency of 6.21.

Take MGLGKKLSVAVAASFMSLSISLFVVQAAEG: the AmyQ secretion efficiency was 3.73.

MKRKLLSSLAISALSLGLLVSAPTASFARKR had an AmyQ secretion efficiency of 3.11.

As to MKKWLIIAVSLAIMYTKGEAKAAGM, the AmyQ secretion efficiency amounted to 2.92.

For MKLAKRVSALTPSTTLAITAKAAPD, the AmyQ secretion efficiency was found to be 7.89.

For the sequence MRKKRVITCVMAASLTLGSLLPAGYVTAKED, the AmyQ secretion efficiency was 2.51.

The sequence MAIIIAIIAAVIVIAALITFNVTNASPG yielded an AmyQ secretion efficiency of 7.21.

MKRIRIPMKLALGAALTIAPLSFASAEEN returned an AmyQ secretion efficiency of 4.57.

For the sequence MKLAKRVKRRKRKTTLAITAKAKEL, the AmyQ secretion efficiency amounted to 7.36.

MFKKHTISLLIIFLLASAVLAKPIERHTV had an AmyQ secretion efficiency of 5.58.

As to MLKKIALTLCPAIVGSLLFFTAPPSAHVS, the AmyQ secretion efficiency was 6.86.

Take MRFTKVVGFLSVLGLAAVFPLTAQAAKR: the AmyQ secretion efficiency turned out to be 5.46.

In turn, MKKSKQSGRLFLGLTPAGANAADL had an AmyQ secretion efficiency of 6.97.

The sequence MGMKRVITCVMAASLTLGSLLPAGYATAKED yielded an AmyQ secretion efficiency of 6.01.

The sequence MMIKQCVICLSLLVFGTTTAHAEET registered an AmyQ secretion efficiency of 2.61.

MKNMSCKLVVSVTLFFSFLTIGPLAHYQNS showed an AmyQ secretion efficiency of 6.66.

In the case of MKSKGSIMACLILFSFTITTFINTETISEFSN, the AmyQ secretion efficiency turned out to be 7.72.

On to MMRTWNVCLTALLSVLLVAGSVPFHAEAKKP, for which the AmyQ secretion efficiency came out at 3.23.

In turn, MKKQIITATTAVVLGSTLFAGATGFAFAPASAQSI registered an AmyQ secretion efficiency of 3.63.

The sequence MTSSGFTVFLILLLMLTLVVAPKEKAEAASS had an AmyQ secretion efficiency of 1.98.

As to MFMLFMNASLVLFAVVFVFAVKGAPAKAETH, the AmyQ secretion efficiency turned out to be 5.11.

As for MSTIGLLFMLCLAALFTIGFPAQQADAAEA, the AmyQ secretion efficiency turned out to be 2.8.

For the sequence MRPVFPLILSAVLFLSCFFFGARQTEASASKR, the AmyQ secretion efficiency worked out at 1.8.

Take MRPVFPLILSAVLFLSCFFGARQTEHSASKR: the AmyQ secretion efficiency amounted to 6.3.

MMKKLFHSTLIVLLFFSFFGVQPVASSASTIHAKKQ came in with an AmyQ secretion efficiency of 2.41.

In turn, MKKIVSILFMFGLVMSIISLGFSQFQPSTVFAADK came in with an AmyQ secretion efficiency of 2.96.

For MFTNHTISLLIIFLLASAVLAKPIEAHTV, the AmyQ secretion efficiency stood at 2.28.

On to MKLWMRKTLVVLFTIVTFGLVSPPAAKMADKP, for which the AmyQ secretion efficiency was found to be 3.22.

MKKLLAAGIIGLLTVTVFVTSIASPSFAAEK yielded an AmyQ secretion efficiency of 2.51.

For MRSYIKVLTMCFLGLILFVPTKLADNS, the AmyQ secretion efficiency was found to be 5.85.

Sequence MKKCLLFLTTIALILKRRTNAFAKNT showed an AmyQ secretion efficiency of 7.37.

Regarding MRKRKRRLILSAVLFLSCFFGARQTEASASKR, the AmyQ secretion efficiency amounted to 2.98.

In turn, MRKKLKWLSFLLGFIILLFLFKYQRSNNDS registered an AmyQ secretion efficiency of 7.7.

The sequence MLKKIALTLCPAIVAPASAHVS showed an AmyQ secretion efficiency of 6.21.

Turning to MGLGKKLSVAVAASFMSLSISLPGVQQAEG, the AmyQ secretion efficiency amounted to 3.24.

As for MKKRRRRIAMLILAGIALFVFISPLKSHKT, the AmyQ secretion efficiency worked out at 6.26.

MRSKKLWISLLFALTLIFTMAFSNMSVVTGAQAAGK yielded an AmyQ secretion efficiency of 2.11.

MKRFLIGAGVAAVILSGWFIADHQTHVQEM gave an AmyQ secretion efficiency of 6.76.

With MKKVMLATALFLGLTPAGANARKR, the AmyQ secretion efficiency was determined as 6.61.

On to MKKRLIGFLVLVPALIEDEEELIEANKK, for which the AmyQ secretion efficiency came to 7.82.

MFQFAITLSVLCALILLVPTLLVIPFQHNKEAGASV: the AmyQ secretion efficiency turned out to be 6.31.

Sequence MRSYIKVLTMCFLGLILFVPTALNDNS registered an AmyQ secretion efficiency of 6.3.

For the sequence MNLRKILLSSALSLGMLFSFAFVSAAPVLATSS, the AmyQ secretion efficiency was determined as 2.03.

For MKRMCSICCAAVLLAGGAAQAEAV, the AmyQ secretion efficiency stood at 3.05.

As to MFGTLFRVCFLAALIMAFTLPNSVYAQKP, the AmyQ secretion efficiency came to 2.52.

Sequence MLKRTSFVSSGKYTTAVLLSILLPSGQAHAQSA had an AmyQ secretion efficiency of 2.65.

MKSKWMSGLLLVAVGFSFTQVMVHADEE had an AmyQ secretion efficiency of 6.6.

The sequence MKRLFMKASLVLFAVVFVFAVKGAPAKAAKR had an AmyQ secretion efficiency of 3.29.

In the case of MKLAKRVSALTPSTTLAITAKFKEL, the AmyQ secretion efficiency worked out at 7.68.

Take MNKLKRLSMLTVMIASVFIFSSHALAAQE: the AmyQ secretion efficiency worked out at 1.11.

In turn, MKKCLLFLTTIALILSLSTNAFYKNT came in with an AmyQ secretion efficiency of 8.02.

Sequence MKKRFSLIMMTGLLFGLTSPAFAADE gave an AmyQ secretion efficiency of 3.46.

As to MMIKQCVICLSLLVFGTTAVHAEET, the AmyQ secretion efficiency came to 1.9.

For the sequence MKKIVSILFMFGLVMGFSSFFPSTVFAADK, the AmyQ secretion efficiency came out at 3.12.

In turn, MKKRFSGQMMTGLLFGLTSPAFAAEK came in with an AmyQ secretion efficiency of 6.38.

For the sequence MKKAFILSAAAAVGLFTFKKKRRRASAKEL, the AmyQ secretion efficiency was 7.21.

On to “MKRLTLVCSIVFILFILFYDLKIGTIPIQDLPVYEESAKTA”, for which the AmyQ secretion efficiency was 5.76.
